B1: human ribonucleotide reductase large subunit (alpha) (enzyme, UniProt P23921 1-792, looked up)
chain: MHVIKRDGRQERVMFDKITSRIQKLCYGLNMDFVDPAQITMKVIQGLYSGVTTVELDTLAAETAATLTTKHPDYAILAARIAVSNLHKETKKVFSDVMEDLYNYINPHNGKHSPMVAKSTLDIVLANKDRLNSAIIYDRDFSYNYFGFKTLERSYLLKINGKVAERPQHMLMRVSVGIHKEDIDAAIETYNLLSERWFTHASPTLFNAGTNRPQLSSCFLLSMKDDSIEGIYDTLKQCALISKSAGGIGVAVSCIRATGSYIAGTNGNSNGLVPMLRVYNNTARYVDQGGNKRPGAFAIYLEPWHLDIFEFLDLKKNTGKEEQRARDLFFALWIPDLFMKRVETNQDWSLMCPNECPGLDEVWGEEFEKLYASYEKQGRVRKVVKAQQLWYAIIESQTETGTPYMLYKDSCNRKSNQQNLGTIKCSNLCTEIVEYTSKDEVAVCNLASLALNMYVTSEHTYDFKKLAEVTKVVVRNLNKIIDINYYPVPEACLSNKRHRPIGIGVQGLADAFILMRYPFESAEAQLLNKQIFETIYYGALEASCDLAKEQGPYETYEGSPVSKGILQYDMWNVTPTDLWDWKVLKEKIAKYGIRNSLLIAPMPTASTAQILGNNESIEPYTSNIYTRRVLSGEFQIVNPHLLKDLTERGLWHEEMKNQIIACNGSIQSIPEIPDDLKQLYKTVWEISQKTVLKMAAERGAFIDQSQSLNIHIAEPNYGKLTSMHFYGWKQGLKTGMYYLRTRPAANPIQFTLNKEKLKDKEKVSKEEEEKERNTAAMVCSLENRDECLMCGS
notes: human ribonucleotide reductase α (large) subunit, 792 residues; the final cryo-EM model holds two residues of tag and residues 1-743, and the 49-residue C-terminal tail is disordered; The number of copies depends on the nucleotides: α2 with TTP, α6 ring (three α2) with dATP, ATP, dATP + ATP, ClFDP or ClFTP; also called human α
B2: human ribonucleotide reductase β subunit (enzyme)
chain: TKAAAPGVEDEPLLRENPRRFVIFPIEYHDIWQMYKKAEASFWTAEEVDLSKDIQHWESLKPEERYFISHVLAFFAASDGIVNENLVERFSQEVQITEARCFYGFQIAMENIHSEMYSLLIDTYIKDPKEREFLFNAIETMPCVKKKADWALRWIGDKEATYGERVVAFAAVEGIFFSGSFASIFWLKKRGLMPGLTFSNELISRDEGLHCDFACLMFKHLVHKPSEERVREIIINAVRIEQEFLTEALPVKLIGMNCTLMKQYIEFVADRLMLELGFSKVFRVENPFDFMENISLEGKTNFFEKRVGEYQRMGVMSSPTENSFTLDADF
notes: human ribonucleotide reductase β (small) subunit, homodimer β2 with the diferric-tyrosyl radical cofactor; also called β2; human β

Experiments:
[1] = biological target: the molecule itself; assay: negative stain EM; α with 0.1 mM TTP, same buffer; 2D class averages
[2] = biological target: the molecule itself; assay: cryo-EM structure; 14 μM α with 0.05 mM dATP, 3 mM ATP, 1 mM CDP in 50 mM HEPES pH 7.6, 15 mM MgCl2, 1 mM EDTA, 5 mM DTT, 50 mM KCl, incubated at 37°C; single-particle map at 3.3 Å
[3] = biological target: B1; assay: negative stain EM; 3 μM α and 3 μM β with 3 mM ATP, 0.05 mM dATP, 1 mM CDP in 50 mM HEPES pH 7.6, 15 mM MgCl2, 50 mM KCl, 5 mM DTT, 37°C for 2 min, diluted ~20 fold; ISAC averages; conditions: both partners purified

Binder | stoichiometry N [1] | stoichiometry N [2] | stoichiometry N [3]
B1 | 2 | 6 | –
B2 | – | – | 1 β2 per α6 ring
